Test results taken from the Immune Epitope Database (IEDB).

Experiments:
HLA-B*44:02 = assay: IEDB peptide-MHC binding, purified MHC/competitive/radioactivity; filed as Kd, often an IC50 or EC50 that approximates it; ≥ and ≤ were set here for values at or beyond the usual limits of such assays
HLA-B*40:02 = assay: as above
HLA-B*18:01 = assay: as above
HLA-B*45:01 = assay: as above
HLA-B*40:01 = assay: as above
HLA-B*44:03 = assay: as above
HLA-B*15:01 = assay: IEDB peptide-MHC binding, purified MHC/competitive/fluorescence; filed as Kd, often an IC50 or EC50 that approximates it; ≥ and ≤ were set here for values at or beyond the usual limits of such assays; conditions: source organism: Yersinia pestis Nepal516
HLA-A*02:01 = assay: as above; conditions: source organism: Yersinia pestis Nepal516
HLA-B*39:01 = assay: as above; conditions: source organism: Yersinia pestis Nepal516
[1] = source organism: Mammarenavirus lassaense
[2] = source organism: SARS coronavirus Tor2
[3] = source organism: Mammarenavirus machupoense
[4] = source organism: Mammarenavirus brazilense

## AEFKSRFFVW
HLA-B*44:02; [1]
  Kd: 0.0136 µM
HLA-B*40:02; [1]
  Kd: 0.0294 µM
HLA-B*18:01; [1]
  Kd: 0.271 µM
HLA-B*45:01; [1]
  Kd: 0.0514 µM
HLA-B*40:01; [1]
  Kd: 2.33 µM
HLA-B*44:03; [1]
  Kd: 0.0156 µM

## AEMDGIQYG
HLA-B*44:02; [2]
  Kd: 0.0114 µM
HLA-B*40:02; [2]
  Kd: 1.31 µM
HLA-B*18:01; [2]
  Kd: ≥ 77.5 µM
HLA-B*45:01; [2]
  Kd: 0.0476 µM
HLA-B*40:01; [2]
  Kd: 2.02 µM
HLA-B*44:03; [2]
  Kd: 0.0138 µM

## AQRELFFTL
HLA-B*15:01
  Kd: 0.113 µM
HLA-A*02:01
  Kd: 1.3 µM
HLA-B*39:01
  Kd: 0.332 µM

## EELITDTEFL
HLA-B*44:02; [1]
  Kd: 4.74 µM
HLA-B*40:02; [1]
  Kd: ≥ 24.1 µM
HLA-B*18:01; [1]
  Kd: 10.9 µM
HLA-B*45:01; [1]
  Kd: 12.4 µM
HLA-B*40:01; [1]
  Kd: 12.7 µM
HLA-B*44:03; [1]
  Kd: 9.1 µM

## EEPVPLLPLS
HLA-B*44:02; [3]
  Kd: 15.7 µM
HLA-B*40:02; [3]
  Kd: 7.13 µM
HLA-B*18:01; [3]
  Kd: ≥ 52.4 µM
HLA-B*45:01; [3]
  Kd: 1.95 µM
HLA-B*40:01; [3]
  Kd: ≥ 32 µM
HLA-B*44:03; [3]
  Kd: 6.26 µM

## GEDIQLLKA
HLA-B*44:02; [2]
  Kd: 13.6 µM
HLA-B*40:02; [2]
  Kd: 2.73 µM
HLA-B*18:01; [2]
  Kd: 1.08 µM
HLA-B*45:01; [2]
  Kd: 2.88 µM
HLA-B*40:01; [2]
  Kd: 7.55 µM
HLA-B*44:03; [2]
  Kd: 2.66 µM

## GEHSLPRCW
HLA-B*44:02; [4]
  Kd: 0.0242 µM
HLA-B*40:02; [4]
  Kd: 2.14 µM
HLA-B*18:01; [4]
  Kd: ≥ 77.5 µM
HLA-B*45:01; [4]
  Kd: 8.74 µM
HLA-B*40:01; [4]
  Kd: ≥ 42.8 µM
HLA-B*44:03; [4]
  Kd: 0.0802 µM
